Here are results for 3 substances from patent publication USRE43568.

Assay [1] concerns the target human complement C3 (from human pooled serum) (human) (UniProt P01024). Nature of the assay: C3 ELISA, antibody coated, human pooled serum added. (In general: In an ELISA, binding on a coated surface is turned into a signal by an enzyme label.)
In assay [2] the target is Fcγ receptors on monocytes (FcγRI and RII) (human). Nature of the assay: FACS on human monocytes, antibody 10 µg/ml.
Assay [3] concerns the target Fcγ receptors on granulocytes (FcγRII and RIII) (human). Put plainly: FACS on human granulocytes, antibody 10 µg/ml.

For the substance “HuMab 002 Fc variant IgG1v2 (L234A; L235A) (antibody)”, the Bmax (OD405 at 10 µg/ml) in assay [1] is 0.133 OD405.
Consider “human IgG4 (CLB, the Netherlands), negative control (antibody)”, for which the % monocytes binding antibody in assay [2] came out at 9.4%.
Substance “HuMab 002 Fc variant IgG4v1 (S228P; L235E) (antibody)” showed a % monocytes binding antibody in assay [2] of 14.5%. Moreover, in assay [1], the Bmax (OD405 at 10 µg/ml) was determined as 0.104 OD405. Also, in assay [3], the % granulocytes binding antibody stood at 1.6%.
